Laboratory results from patent publication US20210024604A1, “NOVEL INSULIN DERIVATIVES” (Novo Nordisk A/S, priority 2009, published 2021).

What was measured:
human serum albumin = target: T1, human serum albumin (Homo sapiens, UniProt P02768); assay: Elution from immobilized human serum albumin column; shift in retention time with glucose in eluent; assay type: binding; conditions: retention time with no glucose vs 50 mM glucose in eluent, HSA column
T1 construct: purchased Chromtech Inc HSA 50.3 column
Description: The glucose sensitivity of insulin albumin binding can be determined by tuning glucose levels in the elution buffer and determine the shift in retention time as a function of the glucose concentration, table 1 below.
T 37° C., flow 0.7 mL/min, 20 uL of 10 uM samples, UV monitor 220 nm.
Compounds marked with an asterix were eluted with a gradient to 70% buffer B.

[1] = rat, in vivo, iv
Description: 30 male, fed Wistar rats (250 g) and 30 male, fed ZDF rats (350 g, 12 weeks old) were anesthetized using Hypnorm-Dormicum (0.081 mg/ml fentanyl citrate (VetaPharma Ltd.), 1.25 mg/ml Midazolam (Roche)) 2 ml/kg as a priming dose and additional 1 ml/kg to timepoint −5 min prior to test substance dosing, and then 1 ml/kg every 45 minutes (4 times).
Both the Wistar rats and the ZDF rats were allocated into 5 groups, 6 rats in each (eg 10 groups in total). […] Two doses of each analogue were tested: 1.2 nmol/kg or 3.6 nmol/kg in Wistar rats, and 3.6 nmol/kg or 7.2 nmol/kg in ZDF rats. Blood samples of 100 μl (tail tip capillary puncture) for determination of plasma insulin were collected in microvette tubes at time 3, 15, 30, 60, 120, 180 and 240 minutes after insulin dosing.

[2] = pH 7.4, 37° C., gradient to 50% buffer B

Row | Substance | Δ Rt (human serum albumin; marked *: eluted with a gradient to 70% buffer B) [min] | Δ Rt (human serum albumin; [2]) [min] | elimination compared with insulin of example 24 [1]
1 | A22M-15-(3,5-Diboronobenzoylamino)pentadecanoyl B29M-15-(3,5-diboronobenzoylamino)pentadecandioyl A22K desB30 Human Insulin [Example 16] | 0.7 |  | 
2 | B29M-{4-[16-(3-Boronobenzenesulfonylamino)hexadecanoylsulfamoyl]butanoyl} desB30 Human Insulin [Example 14] |  | 0.8 | 
3 | B29N^ε-16-(2,3-Difluoro-4-boronobenzoylamino)hexadecanoyl A14E B25H des B30 Human Insulin [Example 22] |  | 1.5 | eliminated faster
4 | B29N^ε-16-(2,3-Difluoro-4-boronobenzoylamino)hexadecanoyl desB30 Human Insulin [Example 6] |  | 2.8 | 
5 | B29N^ε-16-(2,3-Difluoro-4-boronobenzoylamino)hexadecanoyl-γ-L-glutamyl desB30 Human Insulin [Example 4] |  | 1.8 | 
6 | B29N^ε-16-(2,6-Difluoro-4-boronobenzoylamino)hexadecanonyl desB30 Human Insulin [Example 9] |  | 2.5 | 
